In experiment [1] the target is T1, ClfA on S. aureus strain Newman cells (wild type) (Staphylococcus aureus strain Newman, UniProt Q53653 40-899).
T1 construct: whole, on cells; also called Newman WT; Newman-WT
Briefly: flow cytometry, 3 hr culture.
Protocol: (§1) As well, Newman ClfA::emr (ClfA knockout) and NewmanSpa::kan (Protein A knockout) were analyzed in the same manner as specificity controls. Following incubation with antibody, bacterial cells were incubated with Goat-F_{(ab′)2}-Anti-Mouse-F_{(ab′)2}-FITC which served as the detection antibody. […] For each bacterial strain, 10,000 events were collected and measured.

For experiment [2], the target named is T2, ClfA on S. aureus strain 189 Japan cells (Staphylococcus aureus strain 189).
T2 construct: whole, on cells
Briefly: flow cytometry, 3 hr culture.
Protocol: as §1

The target of experiment [3] is T3, ClfA on S. aureus strain 4046 USA cells (Staphylococcus aureus strain 4046).
T3 construct: whole, on cells
Briefly: flow cytometry, 3 hr culture. In general terms: A flow cytometer gives signals particle by particle.
Protocol: as §1

Experiment [4] deals with T4, ClfA on S. aureus strain 49 Europe cells (Staphylococcus aureus strain 49).
T4 construct: whole, on cells
Briefly: flow cytometry, 3 hr culture.
Protocol: as §1

In experiment [5] the target is T5, ClfA on S. aureus strain 67-0 cells (MRSA) (Staphylococcus aureus strain 67-0).
T5 construct: whole, on cells
Briefly: flow cytometry, 3 hr culture.
Protocol: as §1

Experiment [6] addresses T6, ClfA on S. aureus strain 206 SAL5 cells (Staphylococcus aureus strain 206 Sal5).
T6 construct: whole, on cells
Nature of the experiment: flow cytometry, 3 hr culture.
Protocol: as §1

In experiment [7] the target is T7, ClfA on S. aureus strain 451 SAL4 cells (Staphylococcus aureus strain 451 Sal 4).
T7 construct: whole, on cells
Briefly: flow cytometry, 3 hr culture.
Protocol: as §1

For experiment [8], the target named is T8, ClfA on S. aureus strain 203 SAL2 cells (Staphylococcus aureus strain 203 Sal 2).
T8 construct: whole, on cells
Nature of the experiment: flow cytometry, 3 hr culture.
Protocol: as §1

The target of experiment [9] is T9, ClfA on S. aureus strain 397 SAL6 cells (Staphylococcus aureus strain 397 Sal 6).
T9 construct: whole, on cells
Nature of the experiment: flow cytometry, 3 hr culture.
Protocol: as §1

For experiment [10], the target named is T10, ClfA on S. aureus strain 203 Singapore cells (Staphylococcus aureus strain 203).
T10 construct: whole, on cells
Nature of the experiment: flow cytometry, 3 hr culture.
Protocol: as §1

Experiment [11] deals with T11, ClfA on S. aureus strain 560 SAL 1 cells (Staphylococcus aureus strain 560 Sal 1).
T11 construct: whole, on cells
Nature of the experiment: flow cytometry, 3 hr culture.
Protocol: as §1

In experiment [12] the target is T12, SdrG (UniProt Q9KI13 50-597).
T12 sequence (looked up): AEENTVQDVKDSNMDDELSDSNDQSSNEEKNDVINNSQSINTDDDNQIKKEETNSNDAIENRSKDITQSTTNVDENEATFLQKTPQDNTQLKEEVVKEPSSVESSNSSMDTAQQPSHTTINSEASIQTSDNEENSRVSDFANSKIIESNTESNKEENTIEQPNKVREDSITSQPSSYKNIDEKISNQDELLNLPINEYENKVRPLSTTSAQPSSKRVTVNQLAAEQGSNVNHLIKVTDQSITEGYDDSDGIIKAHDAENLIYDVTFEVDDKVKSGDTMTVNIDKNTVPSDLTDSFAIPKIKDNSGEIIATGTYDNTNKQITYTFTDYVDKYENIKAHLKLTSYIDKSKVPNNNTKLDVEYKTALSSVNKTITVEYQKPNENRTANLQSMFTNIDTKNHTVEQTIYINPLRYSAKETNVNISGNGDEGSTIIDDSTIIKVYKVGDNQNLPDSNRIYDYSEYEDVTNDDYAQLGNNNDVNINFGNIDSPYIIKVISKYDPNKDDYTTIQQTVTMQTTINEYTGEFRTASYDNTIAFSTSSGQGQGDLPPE
Briefly: ELISA, SdrG. (In an ELISA, binding on a coated surface is turned into a signal by an enzyme label.)

For experiment [13], the target named is T1, ClfA on S. aureus strain Newman cells …. Nature of the experiment: flow cytometry, overnight culture.
Protocol: as §1
For experiment [14], the target named is T2, ClfA on S. aureus strain 189 Japan cells. Briefly: flow cytometry, overnight culture.
Protocol: as §1
Experiment [15] deals with T3, ClfA on S. aureus strain 4046 USA cells. Nature of the experiment: flow cytometry, overnight culture.
Protocol: as §1
The target in experiment [16] is T4, ClfA on S. aureus strain 49 Europe cells. Nature of the experiment: flow cytometry, overnight culture.
Protocol: as §1
The target of experiment [17] is T5, ClfA on S. aureus strain 67-0 cells …. Briefly: flow cytometry, overnight culture.
Protocol: as §1
The target of experiment [18] is T6, ClfA on S. aureus strain 206 SAL5 cells. Briefly: flow cytometry, overnight culture.
Protocol: as §1
Experiment [19] has as its target T7, ClfA on S. aureus strain 451 SAL4 cells. Nature of the experiment: flow cytometry, overnight culture.
Protocol: as §1
For experiment [20], the target named is T8, ClfA on S. aureus strain 203 SAL2 cells. Nature of the experiment: flow cytometry, overnight culture.
Protocol: as §1
Experiment [21] addresses T9, ClfA on S. aureus strain 397 SAL6 cells. Briefly: flow cytometry, overnight culture.
Protocol: as §1
In experiment [22] the target is T10, ClfA on S. aureus strain 203 Singapore …. Nature of the experiment: flow cytometry, overnight culture.
Protocol: as §1
For experiment [23], the target named is T11, ClfA on S. aureus strain 560 SAL 1 cells. Briefly: flow cytometry, overnight culture.
Protocol: as §1
For experiment [24], the target named is T1, ClfA on S. aureus strain Newman cells …. Briefly: flow cytometry on S. aureus cells (FIG. 3).

T1 sequence (Q53653 40-899): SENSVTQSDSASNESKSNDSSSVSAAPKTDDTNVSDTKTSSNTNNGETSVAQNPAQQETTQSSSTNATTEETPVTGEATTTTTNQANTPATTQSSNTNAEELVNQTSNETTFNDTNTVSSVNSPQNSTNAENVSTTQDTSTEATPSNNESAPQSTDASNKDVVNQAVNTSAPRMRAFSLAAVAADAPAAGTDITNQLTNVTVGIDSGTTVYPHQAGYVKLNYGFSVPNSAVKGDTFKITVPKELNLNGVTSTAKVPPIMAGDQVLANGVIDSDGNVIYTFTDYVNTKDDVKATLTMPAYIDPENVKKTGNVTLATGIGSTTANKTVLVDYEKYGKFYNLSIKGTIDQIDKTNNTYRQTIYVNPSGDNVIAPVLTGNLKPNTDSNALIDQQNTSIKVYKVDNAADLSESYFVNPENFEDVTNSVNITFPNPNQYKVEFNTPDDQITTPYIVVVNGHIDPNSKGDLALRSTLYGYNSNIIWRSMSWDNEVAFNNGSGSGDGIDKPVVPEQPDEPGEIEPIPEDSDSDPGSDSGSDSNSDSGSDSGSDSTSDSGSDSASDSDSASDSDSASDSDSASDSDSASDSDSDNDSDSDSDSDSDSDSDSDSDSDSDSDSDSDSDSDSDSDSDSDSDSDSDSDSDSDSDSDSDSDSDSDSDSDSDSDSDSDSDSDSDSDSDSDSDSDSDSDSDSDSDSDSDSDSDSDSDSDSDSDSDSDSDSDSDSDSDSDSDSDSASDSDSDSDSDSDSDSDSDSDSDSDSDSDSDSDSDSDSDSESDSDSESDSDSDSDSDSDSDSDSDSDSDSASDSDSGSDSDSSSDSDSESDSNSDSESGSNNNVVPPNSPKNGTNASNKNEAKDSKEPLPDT

B1: ClfA monoclonal antibody 12-9 (antibody, V domains shown)
VH: QVQLKESGPGLVAPSQSLSITCAISGFSLSRYSVHWVRQPPGKGLEWLGMIWGGGNTDYNSALKSRLSISKDNSKSQVFLKMNSLQTDDTAMYYCARKGEFYYGYDGFVYWGQGTLVTVSA
VL: NIMMTQSPSSLAVSAGEKVTMSCKSSQSVLYSSNQKNYLAWYQQKPGQSPKLLIYWASTRESGVPDRFTGSGSGTDFTLTISSVQAEDLAVYYCHQYLSSYTFGGGTKLEIK
notes: also called F12-9; Mab 12-9
As to B1, the “Fluorescence Intensity (Geometric Mean)” value in experiment [1] is 30.8; in [2] it was 11; in experiment [3] it was 27.7; in experiment [4], 7.3; in experiment [5], 11.2; in experiment [6], 8.8. Besides, the “Fluorescence Intensity (Geometric Mean)” value in experiment [7] stood at 1.1; in experiment [8], 16.1; in experiment [9] it was 28.9; in experiment [10] it was 22.1; in [11], 28.8; in experiment [13] it was 44.3. Moreover, the “Fluorescence Intensity (Geometric Mean)” value in [14] was 15.7; in experiment [15] it was 23.5; in experiment [16], 11.3; in [17], 27.6; in [18], 33.5; in experiment [19] it was 12.9. Also, the “Fluorescence Intensity (Geometric Mean)” value turned out to be 40.4 in experiment [20], 62.1 in experiment [21], 15.4 in experiment [22] and 36.1 in [23]. Besides, the binding result in experiment [12] is listed as “no binding”.

B2: Chimeric monoclonal antibody 12-9 (antibody, V domains shown)
VH: B1 VH
VL: B1 VL
notes: also called Chimeric 12-9; recombinant chimeric 12-9
In the case of B2, the binding result in experiment [24] is given as “binds”.

The values above are taken from patent US20030099656A1 (published 2003).
